From the domain aggregation screens of Martell et al. (2025)

Assay: soluble fraction after stress (log2 fold change); higher = more stays soluble; pooled small domains, quantitative proteomics
Settings: stress: pH 4
In short: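 High-throughput quantitative proteomics was run on pooled custom libraries of small protein domains following pH 4 stress. Fold changes are on a log2 scale; higher values mean more of a domain remained soluble. The fold change in soluble amount is taken as a measure of aggregation propensity.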

Sequence	soluble fraction (log2)
HMTSNIIIVPNVVGMTKEQATAALAAAGLNIKLSGVETTDTAAVAVKQKPSANTKVEEGSVVTVEFDLK	-1.35
HMKVYPIMEAIANNNIELVKLLLEYHADLNIKDSNGNTPLALAKETGAKEVEDLLLQWMKQHT	-0.834
HMVPHTTSMVAEVQERLFNLNYDPGPINGRMDQATITAITRFQRNFSLPQTGQIDEGFLNTLRDARL	0.063
HMAMTQNVDLAGRIVFNEKKEEVFNFGKHKGRSVAEVFEKEPSYYDWMLKGDFPAETKQVLTALRLRGLS	-0.64
HMNMTDVLVVNQTVRGGTQITESMLSVKKVDKSSLPDNYLKASLKDEVVGKYFDLGLTSGGVLTKDNISVS	0.104
HMGKNISEEDMLGYFKKIDLDYDAETKEVIAPTFRHDLFRLADLAEEVARFFGYDNIPTTLPSGEAT	-0.488
HMRDTLSKQLLTEEMVLQFIREMREHDPGIGGEKLHAMYLGRFGRDYEYMVGRDKMEMIIAENNLNVR	-1.05
HMGEAAIYRINILINNLNVRSGPGTLYPRLRRADFPGEYDIFEEKNGFGRISNTKSEWVSLNTQYVQRLT	0.158
HMGKPTPASQVATRWLTGNLPESLPVAGPAPSFEALARTVSTDLHPRSVLQELVRLGVAEEANGVVTLRRQ	-0.0399
HMPNIQLARNLKYLRLAYGLTQDDLGAFLNISRQAYSNYENLKRSPDLDSLIRLASLYHLSLDDLVSR	-1.24
HMQSNDTAEIEAVVKEIMAANERVVNDYRSGNTKVVSFFVGQVMKATKGKANPKVVNEVLAKLLK	0.169
HMITDNEFLRIVSFLKQRYGIDMSQKKVIMNGRLENYLKSGGWSSFDEYMNDVEKDTSGDLEKTLVNFLTT	-0.853
HMGYTLDVAHGVTEDMNFSEAFATAREEVGPGGIFYWHGKPYGTYYENEWNAMDEEDKAEYWDAVGRTTA	-0.508
HMTNTDALINRAAKVVEEINPDKNTGRVSIDGDLWRAKSSSGELIEQNKQVIVISIESTIVTVKI	-0.317
HMKPDWLSDGRLIPDEVMSHLRKIAVHAVEEMGYSPEDVIKILGLSRNTIYDWLKRFREHGYEGLDTKK	-0.738
HMPQIDLYPFEVRIEQDNNAAEYAVRFLDVPNIIGSGASIDEAIVEARGNLKEYLDYLIDTNRDIPLPS	-1.43
HMSDAVQLGLRLRAARERRGLSQQAVADALGLPRTAVTNMESGNRAVSTLELTKLAALYGQSTAFFLSP	0.291
HMLEEIDYPEEQLQLLFAWSRDHVQSTPPGLPVVDDHVWHILVRGYGATDQRTEAFALLASYAGFP	-0.722
HMRGAIKMAEEQMAGHKKIGSISGTAPTQGELEKKFAMAAAQMGARYYVITGLSNNNYAFGNADIY	-0.194
HMSKPVFQTHSVRSADSATVFDVLQTLLAGTPDARIAIDPKTNAIVAWARPETQEVIAKSIMEMEG	-0.418
HMSYTWHDMYLLAQEYQKEHGNLIIPRNYKGKNGLNLGYWLYKEKLKYRQGKLAPEKIIALEHIGIVWT	0.22
HMGESVQVPSYVGMGFREAARKARARDFGVAVSDSIYVPGKPPGEIIAQDPKAESRVKEGRTIYFTVAK	-0.0612
HMQGRIYLNPDLAEKLRAQYAAYPHWSYLLHTENLGALVRKTESLGPMPSYSTILRYMHANDMRKRNKP	-0.149
HMDSLEIEEPITVKSLSAASGLKISDIIRKLMQEGIMATANQVIDREQAEAVLIDYNVDLVVKR	0.0392
HMTKIDYSINQIYSLRNIENITIVLKDKRSFTGKILKIYWQNGSKIILFTTETRNYKFKEYEISEIYKS	-0.706
HMNEVETWSVQADGATGRIDKWLAEQNEWSRSQVQEWLKAGRVEVDGRVVKPNYKLSGTESIAVHIPEAV	-0.0787

Sequence	soluble fraction (log2)
HMLFKGDTREENVILEFLSKNGTTSSDAIIKQTGLSASEFNQAITMLELKGLALNNGGEKWSL	-0.0366
HMDVNLSIRSGETIGIIGSTGSAKSTLVQLIPRLYDTTEGEVLVGGVNVKNYDLEALRNSVAMVLQKN	-0.155
HMAYMETIERVEALAPGTKFNLKALFGTDWTQSRGTKLTLGKTFYEMVESGYVKTAKVLGKDSSNIMQYER	-0.0837
HMLGYGEQEREAQKYLEMHTAFQADPSLQKMYLPENQYALISKVMEMTGIKNVKSYLTPPNEL	-0.236
HMEEDPILVAQRFLNIFRQLHIFDQQRREEFNSMILALPPEIRGTFGVLPGGSVLQEYVDELEISKGMA	-1.33
HMVLVEEYDTKDSASTFKIGYYARYNTKYGTPSKVGSYADNQRSGIWTFYTDSLKTYFKYNYSTGLIL	-0.572
HMRAEPNSNYSLAIIYKNRYDIAVKKKDAVKEVEYGKMVYEYLNKYVVLSGNKSAKYKKILNYFSSY	-0.445
HMKSILSEIPGIGPKKRKSLMMQFGSVKNISEASLKDLSSTKGINSNLSKEIFNFFSVEKNN	0.15
HMHPQISVEGVLPLKEAVEFVEREIISHAYSRYRATREVARHLGIDPSTVLRKAAKYGITVEPGKN	-0.372
HMLINPLDILRNFNLSLYDDSRDSASNKEIDEIFESIKTNNSHIFSTLKAYRIPLPIASLIIKKIIKITLE	-0.882
HMEKVLPFEFERKFKTNHTAWDFFSNQAPPSYRKTVIHWILSAKQEITRISRLEKLIAASEQQKRI	-0.31
HMNVDALVGQRGRVTQTFDPGLRLGRVAVGGDDWRAETTTDQPLREGDLVEVVSVESNTLIVRPIA	0.0146
HMSSLSGVRRTLLDSLGMPPDASDEELADRREELRGSLDTAPQARRKWIEQQLARIDAITALDASG	-0.0243
HMITNSTEIEAMIDSLIKENPEQAEQYRNGNTKVVGWFVGQMMKASKGKANPQVVGDLLAQKLVG	-0.821
HMDKAGWLPARVRLADYPALKQLAWQVQGVDELTPREALGIYERNWRHLDEAALLPRERNLIDALRLAFG	-0.16
HMAPRKNIRLLRAAQDKAAAEGDHETVDAIRGQIAALIETLPVQYREEYLLQEKGRENGLKLAIENAAK	-0.214
HMDYNSYGLTERELELVDYVLKGYSRKEMAEASGLKVNTIGSYMKKIYRKLNIHNRTELKERFI	-1.31
HMFPDLTEDEQLIVDVLQRTGDLQINSLIVEANIPVNKMSEILFELEMKGVIRTLAGGVYQLL	-1.84
HMKRMSKKQLSAVIEKYFSSQPGVTLTLKDIFRNLHLDTHPLKMIALDILEEMSWDDVIMKVSDTSYALNT	2.81e-05
HMSDRLRLGRRIRAARLEQNLSQAALAERLGISASYLNLLEHDRRSLTTVLLLKLAQVLGLELRDLAAG	0.0304
HMVEFLMESTNGMYGIVKEGSSYYVQKGINESSLDYIGGMFMKDKNRFSSYSTALKRLELISGQET	-0.497
HMDDFTEVLLQYLKDHDGYSSIHDKTDAETIYNTFGVSKKTFKKAVGDLYKKRLIVLEEEGIRLLG	-0.586
HMEALSAREIEILQALETGASNRELAKMLFISEATVKTHLVHIYQKLGVGTRTAAITEARERRV	-0.237
HMDDSSLFGRHTGIGFIVDDIDSGYQTLLAKGVSFEMPPTEQPWGGILALMKDPDGNIFYLD	-0.488
HMNDGEIAAPVSGTLQSFKVEDGQTVSEGDLVAVMEAMKMETQILATKGGTIRLLVKEGDYLQAGHALMTI	-1.07
HMPSHALFWTLLKEVPGYDPHYKDVIKEGIVHEHSGGRTTSLSEMYTKYPREYSLMIEAMKG	-0.326

Sequence	soluble fraction (log2)
HMKHSLNHLGLWLLPELSRRDIQLREFAHLLGTTSQGLSDLLRGQRFSSHTLAQWQLRFQEKLDEIDQAS	-0.236
HMTVDAVALGRRVRHLRKQAGLTLDQLAERTGVSGSHLSLVENARREPRLSLVQRIAEVLGVPVEDL	-0.602
HMLTIEEYLTQLKKLMKDRDAATVRDALSDAEEHLRNAMAGEDPSRLDGIIEEYGSPEEIAAAYKIMEEHT	-0.715
HMNNGTDGLTTRLRRAILAGQYTFKERLPSERQLAEHFNTSRGTVRKVLQRLTTMNLVEQRAGSGTYVRYG	0.22
HMKNTADRVYENLFHMLVSGDYAPGDRIPSEHELKERFNVSRNTIRAALNRMNALGIIETRQGDGTYLKG	-0.147
HMILESREKYLGEVLEVLVEEEKEGEYFGYSQNYLRVKFKLEEKNLINQLINIKIKSIEDDILIGEKEN	-2.36
HMGESEWIVKWRGEKRDEERLQESELVRDDPEHRISVVRPRDDVDASAWLNRWRKSRYVQYIQPNHRVTIS	0.0349
HMTYGYFELKAKNLDSLKQFLKGIAQVESIEEENNGLKVFLKNELESEELSEKLAEAKIFVSHLAKKK	-0.617
HMDRRDEYHQHLLRLLLSGEIRDKDELQRRKVKLSGEYGLAGVPKNSETLALVPPDRLPEVLDILR	-0.289
HMEVVELTDDEKMILATLHDGPVEIGHIKQVVGLSGKKWDAATKSLRQKGLINVVLENEQKLMVK	-0.0453
HMFGEDNLKSKEIKERVTEVAKHADDPVWIEARRKWKDENPDQNVKDYQQAYISGRIHELPWDVSYI	-0.0276
HMPLAQRFGLTVAQARVLDLLAEGRSNRQIGELLGLTEGTVKIHVSAIMKAMGVSNRAEAALMANRKR	-0.29
HMSPTDKATVNVYALNVRTGPGTNYKVLGSVIKGTELQVLGSSGKWLKVKYGNREAYVAGWLVK	0.118
HMGTELSYSEFLNKVEAGEVTNVTIRGPEITFQTGNSSYTTYAPDDPKLIEHLTAKGVAIKAGP	-0.311
HMFTRFTVAQDGWTIGGFTAKEMAVSTAKQHAVDTGKPVTVVAHVAGGGSREAIFNSDGTNDKIWN	0.157
HMNFGEVLQTKRKSMGLTQEDLADKLFVSSETISNWETNKTTPDIDNVIRISQLFDISLNNLLL	-0.89
HMAAEPDQQLIKPASDPVLRTMKIEELMKMSEQVKIQMSKAAKNFDYLEAARLRDEHFALENLIKLRS	0.156
HMSETAEFIIQVNGKVRAKLQLPTDISKEEIQKLALADENVQKYLNGEPRKIIFPPNTRLVSIV	-0.0446
HMVPLTPGELVGTEVRVLWWKEGRGEVIASSRGHQLTLEAHSEDPLRAGSTAVVLEAADDVLVVTS	-1.18
HMGARWPIQDRPLTATEAAAVRRMYAGGLPHGRSKNSVITEVWGDLSNKPKRLDWLNQALEGGA	0.357
HMEPPAPAPDIPYPSRVTVRREVDGWPHYYGTWTRTPPVLGYEGIWLVGVSLDGKVQFVPVDDVTIA	-0.555
HMIELEGVISSVLAGTMFKVKLRGNGHEVLAHISGKMRKKFIRLVIGDAVKIEMSPYDMDKARIVYRI	0.269
HMDADRLSPREREMLQFIARGQSNKEIARALELAESTVKIHVQNMLRKLNLSSRVQAAVFAVENGLG	0.302
HMTYSAWIEKAYSELEKKGITEAELSDALDKRGINLEDLKLMGPDEAVKYQSEVEGVVLELSKSKE	-0.319
